Assay: soluble fraction after stress (log2 fold change); higher = more stays soluble; pooled small domains, quantitative proteomics
Conditions: stress: 50 degC
Procedure, shortened: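 Pooled custom libraries of small protein domains were measured in a high-throughput format, with quantitative proteomics as the read-out. Each library was stressed at 50°C. Aggregation propensity is given as the base-two logarithm of the fold change in how much of each protein stays soluble after the stress. Higher values mean a larger share of the protein remains in solution.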

HMEGSLQEDKVKEYQDRFKEELSNDLNTANSITVLYDLIKDDTLNGTTKRYLIEDFDKILSLDLIKE
soluble fraction (log2): 0.0632

HMHVSLADQAYKTIRTNILNLTYPPGTQLTEAKLASDLNMSRSPVRTAIKMLQADGLLVSDYYKSMTVK
soluble fraction (log2): -0.514

HMEAFAEAVASMLRKLQPEFAIDLVGPRELLVNGRRLDLENLYRMVNHEPVRGQEIVEHYLDQLFAG
soluble fraction (log2): -0.53

HMKEDSTIIERIISNLSSASLKTQKAFEYKLTDLMFRFSEGEYEWSSAMEVIREELLPFLNK
soluble fraction (log2): 0.0862

HMKDPSFELMSVAESFYRSGNVDHAVYALEKYLEVYADGDYTDRAHDLLSQARKGLTYPHGYPPLQI
soluble fraction (log2): -1.21

HMFTLDDLQATYDIFERAEQNSDAMLAFQKVITAEGLDFDLTSPQGIVDFFKGAAPTEIYDLYEAS
soluble fraction (log2): -0.403

HMTINPFSTLAVRELEILHYLLNGHRTKEIATNLGLKMNTVSTIKSNIFEKVKADSFTHLLQLAHVHQIS
soluble fraction (log2): -0.888

HMSSEITYDKFIEMVDKDQVKEVTLQSGVLTVVPKIQKSYYQNASYKVNQMEDVDALTKRLEGTGIVFHY
soluble fraction (log2): -0.0487

HMIPDGKWKEDPISDGQKNFINSLIEQAIDAGQDELGAEAKKYLASGEATKGNASAMIDKLKSAL
soluble fraction (log2): 0.392

HMTGGIWVQIQGAVERPGVYSLPRDSRLKDLLEAAGGFGRDADTEKVNQAARLEDGAMYRVPRQGEG
soluble fraction (log2): 0.352

HMKTKMTPELTTVIEAQIQKEWSPEQISGWLKKTHPVSVSHQRIYQHIQADRQQGGTLHQHLRQAK
soluble fraction (log2): 0.163

HMYLYADIYKKLEEKIKNMEVGEKLPSERAMVQEYGVSRNVLREALVLLSERGLIEIRPGKGSYVTNQQ
soluble fraction (log2): -0.436

HMTKYVEGQKYVFEFRDGTITIGTYLRTGEGNIYIKDLSGEDIYIPKIMIAQIHLATDDNVKGDEFWF
soluble fraction (log2): -0.353

HMDLPRQSQYQALVVSYARRAGIDEAEEDLLAAFEVWRMRHNHDLAGGRTARDFILAYLPQYQRHKE
soluble fraction (log2): -1.63

HMNFHLEHHIAELLYRSIRGELSDFERQELNQWRSDSPMHETLFMRLQDDEYIDEELGVFIK
soluble fraction (log2): -1.99

HMASRSQTEIMHLLSSGLPKHELVTALQSLLGISKPTAYKYLSQDVSIAYDHMVKILEYPPFQRVLYQ
soluble fraction (log2): -1.34

HMEKKKVPEVAGQDEAAARNVMTNSGFVVDVEQKEDDNVPAGKVITTAPAGGVEVVEGTKIILYVSKGSN
soluble fraction (log2): 0.113

HMTGLFSPTEQTRHSKTGATLYSVKLAERIERNAFQSLKKRAKEHDGYYSSFTRSFLFDTPEDAEAFRGT
soluble fraction (log2): -0.27

HMQAATGVVTASVLNIRQGPGTNYTKVGSLLKGAQVEIVGQNGAWSKIRLKSGITGWVNSSYLKTST
soluble fraction (log2): -0.0664

HMSVLDEVRKLSFHQRNAVFLFYFEGYSMKEIAQIFHVKEGTVSSWLTRARKQLRKQMEEEVLYDESLP
soluble fraction (log2): -0.526

HMIITTPYKVTASAINIRSGRGTSYSIIGTVSKGQTVDVYNNSLSKGWVKVKFSGSVGYAYAKYLEK
soluble fraction (log2): -0.299

HMGKVNTRNRNEGKFYKNGKKKPANWEYRFEAAPVNGKRQQISDAGYPTEKAAYEAGIAAYEKYNSAGSVN
soluble fraction (log2): 0.0482

HMGQLIGKEEAKQIALSRAGVAEGDISRYESELDTDDGKTKYEISFHVGRVEYDIEINAVTGAVEKFEMDN
soluble fraction (log2): 0.131

HMKNQIGFKIKNARRKASISQADLSAKLGISSSYLNLIESGKRNVNVDLLLKVSDVLNIELKDLSK
soluble fraction (log2): -0.781

HMSSVHTMEVKSTTQIKVLDENKNLSSYYSMKNPVSFNYRLFFLNQDELKKLQEDLKTNNDIQSIDIKYA
soluble fraction (log2): -0.753

HMTSNSLNLKDEISAFLTKNAGISYSAERIAHALNMDNADQFTPIIQTLAQLEREKKVRVTDKGEFEAVIK
soluble fraction (log2): 0.0897

HMIMHLNQIIRNKRLAAGLTQEALAQKVGVTAPAVSKWEKGISYPDITLLPILARNLNTDVNTLLDFSA
soluble fraction (log2): -0.641

HMDISAFDTEFIISKFGGIRPMAQKLGVPVSTVQGWKQRQTIPQNRMGDILEAAKNYNLELTP
soluble fraction (log2): 0.0856

HMQDSSGENNPQSKLTQQQVDLLMKDLKETNVEFDKLAEKYNVSIKTIRNVNTGIAWRKNDITYPIREP
soluble fraction (log2): -0.204

HMGNAQELQKKLEGLKGISGIEKLESDHYAEKYLVRITQPVDHKNPAAGTFTQRVIVAHVGFDRPTILVT
soluble fraction (log2): 0.511

HMEAEQLEAIRSALQQLSDMNRTVFNLHVVDGYKHEEIAAMLNITTGTSKAHLHRAKKRLRELID
soluble fraction (log2): -0.975

HMKTAWDELNEVIEAYRGQESALIEVLHKAQEIMGYLPRDVQEAIAEGLHVPLNKVYGVVSFYHHFSV
soluble fraction (log2): 0.178

HMGGEPVSARVPDTLHGARLDATAAALFPDFSRSRLAEWIKAGRLRRNDQPAKPRDKVAVDDHLLLIPEY
soluble fraction (log2): 0.0696

HMTKLTTDERSVYLHIQNKPGVSASSIREALGYKKSKLTSILAQLLEVHKIIDTEGTGKSLKYIL
soluble fraction (log2): -0.0662

HMEQISDEDTLRKMVNEVLDNNQTQLEQYKSGKTNLIGFFVGQTLKKSAGKANPSIVNKLVNEEIYI
soluble fraction (log2): 0.00998

HMTLVSALDQKTKDSAYYRGTYLAGKISAGKMTKQEAVADIMKNYDGNTAAMKVAAEKAGVSDLLSQTVL
soluble fraction (log2): 0.234

HMILKNVPSNLVNQRLDKVATVLFQTYSRTQIKKWILEGRLLVNGEISNPKDLVNENDEIEINPI
soluble fraction (log2): -1.6

HMDAAYVYVIGTRVNQRAGPSTSNAVMGVLSEGTRVETLRDEGQWTQIRSNFGTGWMSSSFLSSVAP
soluble fraction (log2): -1.55

HMGMTRPLFVTDPGLVRIGLVSPIFEKLGSGKLSPQLFDQVKEDPPEQTVFDGVEFARETGIDGVIGFG
soluble fraction (log2): -0.124

HMTSESWAEKSRSLAAAGLIVMGRDAQLKIEGLTNLDPLIEAATASSTRLLTGQTIDELLTIVP
soluble fraction (log2): -0.265

HMTRAEVQALLEKQAKDFEVEVVHRGWKKTVQTPEFAGWYSQQPAEIKALAESDDPAVAIRMLDLFSGTK
soluble fraction (log2): -0.0852

HMKNEVENLSYMINRIIEYRDLNNLSNKNLANKIGISEALLSYILNGRRKLSKEIQRKIALFLLND
soluble fraction (log2): -1.49

HMGGPRDVPYSTFLIEVEKGQVAEVTIQDHKITGTYKNSNEPFITNAPDDPDLVSRLIKYGVGVQAKPPE
soluble fraction (log2): -0.0153

HMDVNKDLLGETLEKAKSYKADDWRKASYEALQKAIVEAEAVYKDEEADQVAVDRKVAALNKAINNLEAKG
soluble fraction (log2): -0.234

HMDHKTKLQEVLQKSGDVFIEYRLIKEEGPAHERIFWIEVYVDDQLIGTGQGKSKKLAEQAAAENALAALE
soluble fraction (log2): -0.252

HMDDILAYEIEDKEDLENLSLGKSIGINLNKLIKPTLNSFDNSLLFLSKKGNIISYGKLNGDLFKPKKVL
soluble fraction (log2): 0.0598

HMNQADNFNSLTKREKDVLLLVTQGESNKSIADKLVLSEVTVKSHLNSIFKKLNVTNRTQAVLVAMQMNLV
soluble fraction (log2): 0.03

HMVMAELRISVDRLQIGNYIKLPLSWRDHPFLLSSFMIKKEEQIQLIRQLRLKHVFIIPEKSDAPPKPA
soluble fraction (log2): -4.15

HMKIAEALNLRGDADSYERQEAIWLLEHIVGMSALELKYRGEQDLTEDQLQQYRSGLQRLEQGEPLAYVIG
soluble fraction (log2): -0.396

HMSRFLEGILQRRAGGKNYFVPDDGSNPIFIADRNSAGAANGDRVRIAQFARRPRSGPEGEVVEILKRAK
soluble fraction (log2): -0.00665

HMLILDTDGRYVIKRGDSLSEILEKIANGSNINLNLLKRAFVTANPKAFKRANPNWMYANAR
soluble fraction (log2): -0.113

HMAGTPAVVKWFNPTKGFGFVTPREAGSDALLHASVLAKQGKRWLQEGTVVEVVLEEGPKGLVVSEVLTIE
soluble fraction (log2): -0.457

HMVSVEINTVERDETFRKMFTSGWKPENRIQALAVEQAKKNGLGRMSEVAGLASFRGIWKQATEQVALEA
soluble fraction (log2): -0.12

HMGNNSIDIKDVIYNLVEISQLQAFDIVKHFKTWENLVNKPDELDTVIDGDSDIVDRIKYKIKSLS
soluble fraction (log2): 0.109

HMKLISVAVMRASDAAEIAGGTDSKTLMYRAGLGLFQSWDWHGKIDIVTGSGNNAGDGYVLALLL
soluble fraction (log2): -0.0519

HMRNNKLRRANKLKTEFENLPHIGKKRAHVLLKAFGSTENLKMTTAQALSEAAKISLKQAEEVLEAVRG
soluble fraction (log2): -0.0475

HMAEPIAAGKYTVSTSGSVLNMRVSPDADSQVLEKIPNGTIVEVTKSVLGWAYVTYNSAQGWVSSAYLV
soluble fraction (log2): 0.15

HMDKRYYYRILGLVGEPTRDQIEAAYETRIAKLRSSDYGDDPLYARRKISEVTMAYKVLTGS
soluble fraction (log2): -0.281

HMIFELDSDRASAGNTIGKLVSKWNNTEVASVQFVSGDDTSNKDNASIYLNTRSGGSGNLVRLRITK
soluble fraction (log2): 0.168

HMQKTVLAASVYERMKERIMDQYYPPGERLNIDALAIDLAVSPTPIREALARLAAERLITFEAYKGYRVSP
soluble fraction (log2): -1.87

HMIMGTITKRTNPSGAIVYRAQIRIKKAGYPDFSESRTFSKKAMAVEWLKLREAELEMHPELLFR
soluble fraction (log2): -1.34

HMEHTPHGVALLRTLMDQYGLKAADLANELGSKSNVSNILNGRRALTVSHIKMLAERFNLPADAFI
soluble fraction (log2): -0.914

HMTVLVPNLTGKTLLEAEILLDQAGLKKGDVYSESNKNVPKDHIIRQKPAPNTKIQKGATIDIYRSLGPE
soluble fraction (log2): 0.133

HMIMDQTILRKQRELTDRLNRYRNEYYNHNKPSVSDEVYDRLFDELQSLEKETGVQMANSPTTTVG
soluble fraction (log2): -0.0145

HMDSESGAIIRRAVAQLAPKFRSTIVLRLIEGYSTEETAQILQLPVGTVLSRLARAKVQLMNLLTPYKEL
soluble fraction (log2): -0.126

HMENLSGNDIKYLRKKYNLTQKELADALGLQKFGDRTIRRWEAEETHPSKLEQSSIQSFFNSLK
soluble fraction (log2): 0.0091

HMPDAENFRYRVPYTTEQNRLQYYEGDIRAENADKARDQVMQDAQKYFAQNTAFTPNYIDTDIISLD
soluble fraction (log2): 0.034

HMRSYTPGSAFRLSSVPVYNAETGPSIGVRSGTYYIHSLPVSNGRIRMTNLISRVGKPGQVSFWVEISR
soluble fraction (log2): -2.45

HMLMLTPGQVSNSLNVSTATVRRWSARFARHLSPQPPNRKRSYTPDDLATLARVRDLSASGTSLAQIDIAL
soluble fraction (log2): -2.51

HMPTLNIVDGHIAASDGVRILSIHNVTGRRYATSSKLPAGIYIVVLMPAKAETPLTVKVIVEA
soluble fraction (log2): -1.6

HMGEQVFSRKDLAINGNDLKAVFGWPPGPKYREALDQLFHWVLEDPARNRRETLLAYLHSLYD
soluble fraction (log2): -0.0199

HMTLLVPASKEAILGGLAKIDALKVILKPEKDYSKTHAMTIGTKDEVIAKLDSFLSGMDSEKNQVLIQEYM
soluble fraction (log2): 0.107

HMINLGDLEVGHTYHTRMPILQNDLKYSHKSPIQIVAEHSIVYGVRVYIGFLNEHRVLVTADDV
soluble fraction (log2): 0.0223

HMPMDYFELFNIPRNANRETIKKILDQEYEKYRARVVSPVLEIRHEAELMLVEISKAKQVLLG
soluble fraction (log2): 0.111

HMESLSHRQKSIVDWVQKNGYASIERMAEQFEVSAQTIRRDVIELSERRILQRHHGGASLPAG
soluble fraction (log2): -0.0143
